Source: paper PMC12589613

Assays:
Assay in all cases: single-molecule TIRF
MDA5ΔN (human) = conditions: biotin on annealed RNA linkers 1 and 2; smTIRF imaging buffer, salt, pH and temperature not given in the material; proteins 3-100 nM, with or without ATP or ADPCP
MDA5 (human) = conditions: biotin on annealed RNA linkers 1 and 2, smTIRF imaging buffer, salt, pH and temperature not given in the material, proteins 3-100 nM, with or without ATP or ADPCP
MDA5(Q57E) (human) = conditions: biotin on annealed RNA linkers 1 and 2; smTIRF imaging buffer, salt, pH and temperature not given in the material; proteins 3-100 nM, with or without ATP or ADPCP

For 11.6-kb dsRNA, which binding signal (frequency of static binding) (MDA5ΔN (human)) is on record?
Its binding signal (frequency of static binding) is 0.105.

What about the binding signal (frequency of translocation) (MDA5ΔN (human)) of the same substance?
Its binding signal (frequency of translocation) is 1.42.

What about the binding signal (frequency of static binding) (MDA5 (human); ADPCP, translocation 0) of the same substance?
The binding signal (frequency of static binding) was 0.337.

And the binding signal (frequency of static binding) (MDA5 (human))?
Its binding signal (frequency of static binding) is 0.022.

What about the binding signal (frequency of translocation) (MDA5 (human)) of the same substance?
Its binding signal (frequency of translocation) is 0.114.

And the binding signal (frequency of static binding) (MDA5 (human); no ATP, translocation 0)?
The binding signal (frequency of static binding) was 0.136.

What about the binding signal (frequency of static binding) (MDA5(Q57E) (human)) of the same substance?
The binding signal (frequency of static binding) was 0.086.

And the binding signal (frequency of translocation) (MDA5(Q57E) (human))?
The binding signal (frequency of translocation) was 0.527.
